Bounds are passed on as bounds.

The target in experiment [1] is human chromosomal region maintenance 1 (CRM1) (UniProt O14980). Nature of the experiment: two-hybrid.
Experiment [2] shares this target. Nature of the experiment: mammalian two-hybrid (CheckMate system) luciferase assay. The following applies: HEK-293 cells, 100 ng pG5luc reporter plasmid, 96 hours transfection, read off a plot; for percent of parent: parent: est. 100.

Turning to DHOV M I121A (natural protein), the reduction of the firefly luciferase signal relative to WT M in experiment [1] was above 10%. For the substance “Dhori virus (DHOV) matrix protein (M) V115G; L116G; M119G; L120G; I121G; L122G; I127G”, in experiment [2] (parent: est. 5.2), the response (fold induction) was found to be 1.4. Besides, the percent of parent in experiment [2] is 27 % of WT M. In the case of “Dhori virus (DHOV) matrix protein (M) M119S”, the response (fold induction) in experiment [2] (parent: est. 5.7) is 7.3. In addition, in experiment [2], the percent of parent was 130 % of WT M.

“Dhori virus (DHOV) matrix protein (M) I127A”: in experiment [2] (parent: est. 5.7), the response (fold induction) turned out to be 11. For “Dhori virus (DHOV) matrix protein (M) L116S”, the response (fold induction) in experiment [2] (parent: est. 5.7) amounted to 5.3. Besides, in experiment [2], the percent of parent is 92 % of WT M. For “Dhori virus (DHOV) matrix protein (M) V115A; L116A; M119A; L120A; I121A; L122A; I127A”, the response (fold induction) in experiment [2] (parent: est. 5.2) came to 1.4. In experiment [2], the percent of parent is 27 % of WT M. Turning to “Dhori virus (DHOV) matrix protein (M) L116A”, in experiment [2] (parent: est. 5.7), the response (fold induction) worked out at 4.2. Moreover, the percent of parent in experiment [2] is 74 % of WT M. For “Dhori virus (DHOV) matrix protein (M) L120S”, the response (fold induction) in experiment [2] (parent: est. 5.7) amounted to 7.7. Moreover, the percent of parent in experiment [2] is 140 % of WT M. DHOV M I121S (natural protein) displayed a reduction of the firefly luciferase signal relative to WT M in experiment [1] above 10%. DHOV M L122A (natural protein): the firefly luciferase signal as percent of WT M in experiment [1] is < 70 % of WT M. On to “Dhori virus (DHOV) matrix protein (M) V115R; L116R; M119R; L120R; I121R; L122R; I127R”, for which, in experiment [2] (parent: est. 5.2), the response (fold induction) worked out at 1.4. The percent of parent in experiment [2] was 27 % of WT M.

On to DHOV M L122S (natural protein), for which, in experiment [1], the firefly luciferase signal as percent of WT M is < 70 % of WT M.

As to “Dhori virus (DHOV) matrix protein (M) I121S; L122S”, in experiment [2] (parent: est. 5.2), the response (fold induction) amounted to 4.7. For the same substance, the percent of parent in experiment [2] was 90 % of WT M. On to “Dhori virus (DHOV) matrix protein (M) I121A; L122A”, for which the response (fold induction) in experiment [2] (parent: est. 5.2) was found to be 4.5. In addition, in experiment [2], the percent of parent is 86 % of WT M. On to “Dhori virus (DHOV) matrix protein (M) L120A”, for which the response (fold induction) in experiment [2] (parent: est. 5.7) is 7.6. The percent of parent in experiment [2] is 130 % of WT M.

Regarding “Dhori virus (DHOV) matrix protein (M) V115A”, the response (fold induction) in experiment [2] (parent: est. 5.7) was found to be 6. The percent of parent in experiment [2] is 110 % of WT M.

On to “Dhori virus (DHOV) matrix protein (M) M119A”, for which the response (fold induction) in experiment [2] (parent: est. 5.7) was 5.8. Besides, in experiment [2], the percent of parent is 100 % of WT M. For the substance “Dhori virus (DHOV) matrix protein (M) V115S”, the response (fold induction) in experiment [2] (parent: est. 5.7) is 6.2. For the same substance, the percent of parent in experiment [2] is 110 % of WT M. Consider “Dhori virus (DHOV) matrix protein (M) I127S”, for which the response (fold induction) in experiment [2] (parent: est. 5.7) came to 14.

The record behind these values is paper PMC12724217.
